The source of these data is US20200199241A1 (Chugai, published 2020).

One test deals with T1, FcγRIIIa type V (human, UniProt P08637 17-208, limits assumed).
T1 construct: also called FcγRIIIaV; FcgRIIIaV
As to the kind of experiment: SPR (Biacore), FcγR over captured antibody. (In SPR one partner is held on a chip, and binding of the other changes the refractive index at the surface.)

For test [1], the target named is T2, FcγRIIb (human, UniProt P31994 43-217, limits assumed).
T2 construct: also called FcgRIIb; FcγIIB
T2 sequence: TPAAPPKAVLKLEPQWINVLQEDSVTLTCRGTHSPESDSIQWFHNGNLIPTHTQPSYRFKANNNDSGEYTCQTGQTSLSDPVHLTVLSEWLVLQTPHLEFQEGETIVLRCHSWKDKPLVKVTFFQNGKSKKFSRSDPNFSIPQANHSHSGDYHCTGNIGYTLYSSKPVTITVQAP
As to the kind of experiment: SPR (Biacore), FcγR over captured antibody.

The target of test [2] is T3, FcγRIa (human, UniProt P12314 16-292, limits assumed).
T3 construct: also called FcgRIa; CD64
The experiment in a line: SPR (Biacore), FcγR over captured antibody.
T3 sequence (P12314 16-292 limits assumed): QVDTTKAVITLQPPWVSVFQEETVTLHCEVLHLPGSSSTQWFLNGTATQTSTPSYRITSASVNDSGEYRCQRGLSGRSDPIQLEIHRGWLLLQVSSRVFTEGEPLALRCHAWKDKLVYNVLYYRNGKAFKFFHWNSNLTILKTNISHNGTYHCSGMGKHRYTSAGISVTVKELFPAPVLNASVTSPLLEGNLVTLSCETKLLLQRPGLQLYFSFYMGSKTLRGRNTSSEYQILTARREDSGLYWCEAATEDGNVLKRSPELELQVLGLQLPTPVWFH

Test [3] addresses T4, FcγRIIa type H (human, UniProt P12318 36-217).
T4 construct: also called FcγRIIaH; FcγRIIH
T4 sequence: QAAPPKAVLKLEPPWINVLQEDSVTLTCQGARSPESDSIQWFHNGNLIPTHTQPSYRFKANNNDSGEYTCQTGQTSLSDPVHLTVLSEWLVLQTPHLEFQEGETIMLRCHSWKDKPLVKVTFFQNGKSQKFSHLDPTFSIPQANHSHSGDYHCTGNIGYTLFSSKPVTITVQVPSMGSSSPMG
The experiment in a line: SPR (Biacore), FcγR over captured antibody.

The target of test [4] is T5, FcγRIIb (human, UniProt P31994 43-217, limits assumed).
T5 construct: also called FcγIIB; CD32
T5 sequence: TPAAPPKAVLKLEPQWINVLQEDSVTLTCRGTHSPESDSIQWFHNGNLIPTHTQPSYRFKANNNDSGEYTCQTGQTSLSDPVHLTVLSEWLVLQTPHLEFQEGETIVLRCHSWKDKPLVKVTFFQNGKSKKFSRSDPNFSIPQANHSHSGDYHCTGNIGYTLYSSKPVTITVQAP
The experiment in a line: SPR (Biacore), method of Example 14.
From the text: (§1) Furthermore, KD(IIaR)/KD(IIb) and KD(IIaH)/KD(IIb) in the table respectively represent the value obtained by dividing the KD value of each variant for FcγRIIaR by the KD value of each variant for FcγRIIb, and the value obtained by dividing the KD value of each variant for FcγRIIaH by the KD value of each variant for FcγRIIb. KD(IIb) of the parent polypeptide/KD(IIb) of the altered polypeptide refers to the value obtained by dividing the KD value of the parent polypeptide for FcγRIIb by the KD value of each variant for FcγRIIb.

The next test deals with T6, FcγRIIa type R (human, UniProt P12318 36-217).
T6 construct: also called FcγRIIaR; FcγRIIa(R)
T6 chain: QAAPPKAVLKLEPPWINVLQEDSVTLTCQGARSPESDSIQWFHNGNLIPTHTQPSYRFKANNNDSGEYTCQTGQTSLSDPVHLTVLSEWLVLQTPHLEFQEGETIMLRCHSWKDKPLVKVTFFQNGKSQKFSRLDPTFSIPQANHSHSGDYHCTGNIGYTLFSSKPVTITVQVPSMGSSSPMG
The experiment in a line: SPR (Biacore), method of Example 14.

The target of test [5] is T7, FcγRIa (human, UniProt P12314 16-292, limits assumed).
T7 construct: also called CD64
The experiment in a line: SPR (Biacore), method of Example 14.
T7 sequence (P12314 16-292 limits assumed): as the sequence (P12314 16-292 limits assumed) above
From the text: as §1

Test [6] addresses T8, FcγRIIa type H (human, UniProt P12318 36-217).
T8 construct: also called FcγRIIaH; FcγRIIa(H)
T8 sequence: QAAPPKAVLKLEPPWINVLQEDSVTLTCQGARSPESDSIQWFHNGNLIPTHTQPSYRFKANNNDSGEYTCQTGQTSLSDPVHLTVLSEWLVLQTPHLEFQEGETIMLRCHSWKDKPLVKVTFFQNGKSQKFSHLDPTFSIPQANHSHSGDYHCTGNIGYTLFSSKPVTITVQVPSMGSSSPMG
The experiment in a line: SPR (Biacore), method of Example 14.
From the text: as §1

The target of test [7] is T5, FcγRIIb. As to the kind of experiment: ratio of SPR KD values, parent IL6R-B3/IL6R-L.

T1 sequence (P08637 other isoform, or with tags, fused parts or gaps limits assumed): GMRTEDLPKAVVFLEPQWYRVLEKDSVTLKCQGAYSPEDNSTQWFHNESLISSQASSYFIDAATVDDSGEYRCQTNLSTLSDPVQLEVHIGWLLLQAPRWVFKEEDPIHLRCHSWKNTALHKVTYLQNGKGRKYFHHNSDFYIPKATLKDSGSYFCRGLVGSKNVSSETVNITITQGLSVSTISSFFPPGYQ
From the text for FcγRIIa type R: as §1

B1: IL6R-2B002/IL6R-L (antibody, human IgG1)
heavy: QVQLQESGPGLVKPSETLSLTCAVSGHSISHDHAWSWVRQPPGEGLEWIGFISYSGITNYNPSLQGRVTISRDNSKNTLYLQMNSLRAEDTAVYYCARSLARTTAMDYWGEGTLVTVSSASTKGPSVFPLAPSSKSTSGGTAALGCLVKDYFPEPVTVSWNSGALTSGVHTFPAVLQSSGLYSLSSVVTVPSSSLGTQTYICNVNHKPSNTKVDKKVEPKSCDKTHTCPPCPAPDLLGGDSVFLFPPKPKDTLMISRTPEVTCVVVDVSHEDPEVKFNWYVDGVEVHNAKTKPREEQYNSTYRVVSVLTVLHQDWLNGKEYKCKVSNKALPAPIEKTISKAKGQPREPQVYTLPPSRDELTKNQVSLTCLVKGFYPSDIAVEWESNGQPENNYKTTPPVLDSDGSFFLYSKLTVDKSRWQQGNVFSCSVMHEALHNHYTQESLSLSP
light: DIQMTQSPSSLSASVGDRVTITCRASQDISSYLNWYQQKPGKAPKLLIYYTSRLHSGVPSRFSGSGSGTDFTFTISSLQPEDIATYYCQQGNTLPYTFGQGTKVEIK
notes: IgG1; Fc variant of IL6R-B3; copies: 2 + 2
For B1, the Kd (as a rule, the constant that tells how readily two partners part at equilibrium) with FcγRIIIa type V was found to be 53000 nM; with FcγRIIb [1], 930 nM; in the test with FcγRIa [2], 6.4 nM; with FcγRIIa type H [3], 86000 nM.

B2: IL6R-BP201/IL6R-L (antibody, human IgG1)
heavy: QVQLQESGPGLVKPSETLSLTCAVSGHSISHDHAWSWVRQPPGEGLEWIGFISYSGITNYNPSLQGRVTISRDNSKNTLYLQMNSLRAEDTAVYYCARSLARTTAMDYWGEGTLVTVSSASTKGPSVFPLAPSSKSTSGGTAALGCLVKDYFPEPVTVSWNSGALTSGVHTFPAVLQSSGLYSLSSVVTVPSSSLGTQTYICNVNHKPSNTKVDKKVEPKSCDKTHTCPPCPAPDLLGDDSVFLFPPKPKDTLMISRTPEVTCVVVDVSHEDGEVKFNWYVDGVEVHNAKTKPREEQYNSTYRVVSVLTVLHQDWLNGKEYKCKVSNKALPRPIEKTISKAKGQPREPQVYTLPPSRDELTKNQVSLTCLVKGFYPSDIAVEWESNGQPENNYKTTPPVLDSDGSFFLYSKLTVDKSRWQQGNVFSCSVMHEALHNHYTQESLSLSP
light: DIQMTQSPSSLSASVGDRVTITCRASQDISSYLNWYQQKPGKAPKLLIYYTSRLHSGVPSRFSGSGSGTDFTFTISSLQPEDIATYYCQQGNTLPYTFGQGTKVEIK
notes: Anti-IL-6R human IgG1 variant; copies: 2 + 2
For B2, the Kd was determined as 40 nM with FcγRIIb [4], 840 nM in the test with FcγRIIa type R, 51 nM with FcγRIa [5] and 69000 nM with FcγRIIa type H [6]. The “KD(IIb) of the parent polypeptide/KD(IIb) of altered polypeptide” value (“KD(IIb)” for short) with FcγRIIb [7] turned out to be 77.1 fold.

B3: IL6R-BP142/IL6R-L (antibody, human IgG1)
heavy: QVQLQESGPGLVKPSETLSLTCAVSGHSISHDHAWSWVRQPPGEGLEWIGFISYSGITNYNPSLQGRVTISRDNSKNTLYLQMNSLRAEDTAVYYCARSLARTTAMDYWGEGTLVTVSSASTKGPSVFPLAPSSKSTSGGTAALGCLVKDYFPEPVTVSWNSGALTSGVHTFPAVLQSSGLYSLSSVVTVPSSSLGTQTYICNVNHKPSNTKVDKKVEPKSCDKTHTCPPCPAPELLGGDSVFLFPPKPKDTLMISRTPEVTCVVVDVSHEDPEVKFNWYVDGVEVHNAKTKPREEQYNSTYRVVSVLTVLHQDWLNGKEYKCKVSNNALPAPIEKTISKAKGQPREPQVYTLPPSRDELTKNQVSLTCLVKGFYPSDIAVEWESNGQPENNYKTTPPVLDSDGSFFLYSKLTVDKSRWQQGNVFSCSVMHEALHNHYTQESLSLSP
light: DIQMTQSPSSLSASVGDRVTITCRASQDISSYLNWYQQKPGKAPKLLIYYTSRLHSGVPSRFSGSGSGTDFTFTISSLQPEDIATYYCQQGNTLPYTFGQGTKVEIK
notes: as for B1
Turning to B3, the Kd in the test with FcγRIIIa type V was 110000 nM; with FcγRIIb [1] it was 1200 nM; with FcγRIa [2], 5.3 nM; with FcγRIIa type H [3], 93000 nM.

B4: IL6R-BP192/IL6R-L (antibody, human IgG1)
heavy: QVQLQESGPGLVKPSETLSLTCAVSGHSISHDHAWSWVRQPPGEGLEWIGFISYSGITNYNPSLQGRVTISRDNSKNTLYLQMNSLRAEDTAVYYCARSLARTTAMDYWGEGTLVTVSSASTKGPSVFPLAPSSKSTSGGTAALGCLVKDYFPEPVTVSWNSGALTSGVHTFPAVLQSSGLYSLSSVVTVPSSSLGTQTYICNVNHKPSNTKVDKKVEPKSCDKTHTCPPCPAPDLLGGDSVFLFPPKPKDTLMISRTPEVTCVVVDVSDEDGEVKFNWYVDGVEVHNAKTKPREEQDNSTYRVVSVLTVLHQDWLNGKEYKCKVSNKALPKPIEKTISKAKGQPREPQVYTLPPSRDELTKNQVSLTCLVKGFYPSDIAVEWESNGQPENNYKTTPPVLDSDGSFFLYSKLTVDKSRWQQGNVFSCSVMHEALHNHYTQESLSLSP
light: DIQMTQSPSSLSASVGDRVTITCRASQDISSYLNWYQQKPGKAPKLLIYYTSRLHSGVPSRFSGSGSGTDFTFTISSLQPEDIATYYCQQGNTLPYTFGQGTKVEIK
notes: as for B2
For B4, the Kd in the test with FcγRIIb [4] is 110 nM; with FcγRIIa type R it was 2600 nM; in the test with FcγRIa [5] it was 6.6 nM; with FcγRIIa type H [6], 32000 nM. In the test with FcγRIIb [7], the “KD(IIb)” value was 27.3 fold.

B5: IL6R-BP136/IL6R-L (antibody, human IgG1)
heavy: QVQLQESGPGLVKPSETLSLTCAVSGHSISHDHAWSWVRQPPGEGLEWIGFISYSGITNYNPSLQGRVTISRDNSKNTLYLQMNSLRAEDTAVYYCARSLARTTAMDYWGEGTLVTVSSASTKGPSVFPLAPSSKSTSGGTAALGCLVKDYFPEPVTVSWNSGALTSGVHTFPAVLQSSGLYSLSSVVTVPSSSLGTQTYICNVNHKPSNTKVDKKVEPKSCDKTHTCPPCPAPELLGGDSVFLFPPKPKDTLMISRTPEVTCVVVDVSHEDPEVKFNWYVDGVEVHNAKTKPREEQYNSTYRVVSVLTVLHQDWLNGKEYKCKVSNAALPAPIEKTISKAKGQPREPQVYTLPPSRDELTKNQVSLTCLVKGFYPSDIAVEWESNGQPENNYKTTPPVLDSDGSFFLYSKLTVDKSRWQQGNVFSCSVMHEALHNHYTQESLSLSP
light: DIQMTQSPSSLSASVGDRVTITCRASQDISSYLNWYQQKPGKAPKLLIYYTSRLHSGVPSRFSGSGSGTDFTFTISSLQPEDIATYYCQQGNTLPYTFGQGTKVEIK
notes: as for B1
Regarding B5, the Kd with FcγRIIIa type V worked out at 69000 nM; in the test with FcγRIIb [1] it was 800 nM; with FcγRIa [2], 6.6 nM; in the test with FcγRIIa type H [3], 38000 nM.

B6: IL6R-BP202/IL6R-L (antibody, human IgG1)
heavy: QVQLQESGPGLVKPSETLSLTCAVSGHSISHDHAWSWVRQPPGEGLEWIGFISYSGITNYNPSLQGRVTISRDNSKNTLYLQMNSLRAEDTAVYYCARSLARTTAMDYWGEGTLVTVSSASTKGPSVFPLAPSSKSTSGGTAALGCLVKDYFPEPVTVSWNSGALTSGVHTFPAVLQSSGLYSLSSVVTVPSSSLGTQTYICNVNHKPSNTKVDKKVEPKSCDKTHTCPPCPAPELLGDDSVFLFPPKPKDTLMISRTPEVTCVVVDVSHEDGEVKFNWYVDGVEVHNAKTKPREEQYNSTYRVVSVLTVLHQDWLNGKEYKCKVSNAALPRPIEKTISKAKGQPREPQVYTLPPSRDELTKNQVSLTCLVKGFYPSDIAVEWESNGQPENNYKTTPPVLDSDGSFFLYSKLTVDKSRWQQGNVFSCSVMHEALHNHYTQESLSLSP
light: DIQMTQSPSSLSASVGDRVTITCRASQDISSYLNWYQQKPGKAPKLLIYYTSRLHSGVPSRFSGSGSGTDFTFTISSLQPEDIATYYCQQGNTLPYTFGQGTKVEIK
notes: as for B2
Take B6: the Kd in the test with FcγRIIb [4] turned out to be 64 nM; with FcγRIIa type R it was 1200 nM; with FcγRIa [5], 95 nM; with FcγRIIa type H [6] it was 92000 nM. For the same molecule, in the test with FcγRIIb [7], the “KD(IIb)” value worked out at 48.4 fold.

B7: IL6R-BP199/IL6R-L (antibody, human IgG1)
heavy: QVQLQESGPGLVKPSETLSLTCAVSGHSISHDHAWSWVRQPPGEGLEWIGFISYSGITNYNPSLQGRVTISRDNSKNTLYLQMNSLRAEDTAVYYCARSLARTTAMDYWGEGTLVTVSSASTKGPSVFPLAPSSKSTSGGTAALGCLVKDYFPEPVTVSWNSGALTSGVHTFPAVLQSSGLYSLSSVVTVPSSSLGTQTYICNVNHKPSNTKVDKKVEPKSCDKTHTCPPCPAPDLLGGDSVFLFPPKPKDTLMISRTPEVTCVVVDVSHEDPEVKFNWYVDGVEVHNAKTKPREEQYNSTYRVVSVLTVLHQDWLNGKEYKCKVSNDALPRPIEKTISKAKGQPREPQVYTLPPSRDELTKNQVSLTCLVKGFYPSDIAVEWESNGQPENNYKTTPPVLDSDGSFFLYSKLTVDKSRWQQGNVFSCSVMHEALHNHYTQESLSLSP
light: DIQMTQSPSSLSASVGDRVTITCRASQDISSYLNWYQQKPGKAPKLLIYYTSRLHSGVPSRFSGSGSGTDFTFTISSLQPEDIATYYCQQGNTLPYTFGQGTKVEIK
notes: as for B2
Consider B7, for which the Kd was found to be 490 nM with FcγRIIb [4], 6.4 nM with FcγRIa [5] and 26000 nM with FcγRIIa type H [6]. Also, the “KD(IIb)” value with FcγRIIb [7] turned out to be 6.3 fold.
